{"source": "paper PMC8945002", "about": "“Pseudomonas aeruginosa Bacterioferritin Is Assembled from FtnA and BfrB Subunits with the Relative Proportions Dependent on the Environmental Oxygen Availability” (Biomolecules, 2022)", "binders": {"B1": {"name": "bacterioferritin-associated ferredoxin (Bfd) (natural protein, P. aeruginosa, UniProt Q9HY80 1-73, looked up)", "chain": "MYVCLCQGVTDNQIRDAIYEGCCSYREVREATGVGTQCGKCACLAKQVVRETLNDLQSAQPVPAFGTTAFVAA", "notes": "Bfd, the bacterioferritin-associated [2Fe-2S] ferredoxin of P. aeruginosa, product of the bfd gene next to bfrB; Holds a [2Fe-2S] cluster"}, "B2": {"name": "Bfr containing only BfrB subunits (24-mer BfrB) isolated from P. aeruginosa (natural protein)", "chain": "not shown", "notes": "BfrB, bacterioferritin subunit of P. aeruginosa PAO1, gene PA3531; subunit mass 18,552 Da by LC-MS; 24 copies hold for the homooligomer (SPR target, self rows); in the rows with m3 it stands for the BfrB subunits of the heterooligomeric 24-mer Bfr; also called homooligomeric BfrB; Bfr (0% FtnA, 21% O2); source: purified from P. aeruginosa PAO1 or ΔftnA cells (Q Sepharose, hydroxyapatite, Superdex …)"}, "B3": {"name": "FtnA subunit of P. aeruginosa (endogenous) (natural protein, P. aeruginosa PAO1 (endogenous), UniProt Q9HWF9 1-154, looked up)", "chain": "MQGHPEVIDYLNTLLTGELAARDQYFIHSRMYEDWGFSKLYERLNHEMEEETQHADALLRRILLLEGTPRMRPDDIHPGTTVPEMLEADLKLERHVRAALAKGIALCEQHKDFVSRDILKAQLADTEEDHAYWLEQQLGLIARMGLENYLQSQI", "notes": "FtnA, bacterial ferritin subunit of P. aeruginosa PAO1, gene PA4235 (formerly annotated bfrA); subunit mass 17,940 Da by LC-MS; Found in PAO1 only as a subunit of heterooligomeric Bfr; as 24-mer FtnA only in lysates of ΔbfrB cells cultured in 2% O2 or anaerobically; also called bacterial ferritin; formerly BfrA; source: purified from P. aeruginosa PAO1 as part of Bfr (Q Sepharose, hydroxyapatite, …)"}}, "key": {"[1]": {"target": "B2", "assay": "SPR; Biacore X100, 25 °C; Bfr or FtnArec immobilised on CM5 chips by amine coupling (100 nM in 10 mM sodium acetate pH 5.0); Bfd 0-40 μM flowed at 5 µL/min in PBS pH 7.4 with 1 mM TCEP; steady-state analysis, steric factor n set to 0.91", "settings": "both partners purified"}, "[2]": {"target": "T1, heterooligomeric 24-mer Bfr containing ~45% FtnA, isolated from PAO1 cells cultured in 2% O2 (P. aeruginosa PAO1 (endogenous), UniProt Q9HY79 1-158; Q9HWF9 1-154)", "T1 construct": "BfrB subunit of P. aeruginosa PAO1, gene PA3531; 18,552 Da; ~55% of the 24 subunits; FtnA subunit of P. aeruginosa PAO1, gene PA4235; 17,940 Da; ~45% of the 24 subunits; 24 subunits in all; a population of molecules of varying composition, on average ~45% FtnA; heme in the BfrB dimers; also called heterooligomeric Bfr; Bfr 45 (2% O2); source: purified from P. aeruginosa PAO1 cultured in 2% O2 (Q …)", "T1 sequence (Q9HY79 whole entry, chain 1 of 2, one chain of several)": "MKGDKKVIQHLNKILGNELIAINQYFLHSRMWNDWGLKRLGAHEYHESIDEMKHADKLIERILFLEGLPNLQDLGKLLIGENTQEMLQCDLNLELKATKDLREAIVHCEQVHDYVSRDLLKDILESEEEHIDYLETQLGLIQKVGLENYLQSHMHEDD", "assay": "SPR; Biacore X100, 25 °C; Bfr or FtnArec immobilised on CM5 chips by amine coupling (100 nM in 10 mM sodium acetate pH 5.0); Bfd 0-40 μM flowed at 5 µL/min in PBS pH 7.4 with 1 mM TCEP; steady-state analysis, steric factor n set to 0.91", "settings": "both partners purified"}, "[3]": {"target": "the molecule itself", "assay": "SEC; Superdex 200 Increase 10/300 GL, 100 mM phosphate buffer pH 7.6, 1 mM TCEP; pure Bfr from P. aeruginosa; elution volume compared with a ferritin standard"}, "[4]": {"target": "the molecule itself", "assay": "native gel or EMSA; lysates of PAO1, ΔftnA and ΔbfrB cells (21%, 10%, 2% O2 or anaerobic) on native PAGE, stained for iron with Ferene S; BfrBrec and FtnArec as mobility standards; bands excised, digested with trypsin and identified by LC-MS"}}, "data": [{"binder": "B1", "values": [{"measurement": "Kd", "setting": "[1]", "result": "4.7 ± 0.8", "unit": "µM"}, {"measurement": "Kd", "setting": "[2]", "result": "4.3 ± 0.5", "unit": "µM"}]}, {"binder": "B2", "values": [{"measurement": "stoichiometry N", "setting": "[3]", "result": 24}]}, {"binder": "B3", "values": [{"measurement": "stoichiometry N", "setting": "[4]", "result": 24}]}]}
